This is an account of results in paper doi:10.1101/2021.01.30.428974.

Assay [1] deals with Murine polyomavirus VP1 with the putative nuclear localisation signal deleted (Murine polyomavirus) (UniProt P03090). Description: co-sedimentation.
The target of assay [2] is wild-type Murine polyomavirus VP1 (Murine polyomavirus) (UniProt P03090). Briefly: co-sedimentation.

Regarding VP2C-GFP, in assay [1], the stoichiometry N (GFP per ΔVP1 VLP) turned out to be 72. The stoichiometry N (GFP per wtVP1 VLP) in assay [2] amounted to 59.
